Results on nine compounds are retold here after PMC7689096, “Cyclizing Painkillers: Development of Backbone-Cyclic TAPS Analogs” (Frontiers in Chemistry, 2020).

Values joined by “and” are separate entries in the source; they are usually repeats but may differ in a detail not shown here. Equal entries are not always repeated. Numbered stars: 1 amine (or outer) side, 2 acyl side, 3 side chain; on linkers, the order of the positions; unused ones are H or OH. Bridge positions count the residues as written; N and C are the ends. Square brackets hold non-standard residues; d marks the D form. Ends that are not written are not given here. N(6-aminohexyl)Gly = O=C(CN(CCCCCCN[*:3])[*:1])[*:2]; NGly(3-aminopropyl) = O=C(CN(CCCN[*:3])[*:1])[*:2]; N(2-Aminoethyl)Gly = O=C(CN(CCN[*:3])[*:1])[*:2]; CO = O=C([*:1])[*:2]; Nlys = NCCCCNCC(=O)O

Data set [1] has as its target T1, human recombinant μ (MOP, OPRM1) receptor (Homo sapiens, UniProt P35372).
T1 construct: host or cells: CHO cells
Put plainly: MOP opioid receptor functional agonism in CHO cells expressing human recombinant μ receptors. Type of data set: cell-based. The settings on record: At 10^−6 M, percent of control specific agonist response, values lower than 25% not significant. On the procedure:
(§1) Peptides were tested for μ (MOP, OPRM1) and δ (DOP, OPRD2) opioid receptor activation functional agonism and antagonism using CHO cells expressing human recombinant μ receptors and NG-10815 cells which express significant endogenous levels of δ opioid receptors. The cultures were incubated for 10 min at 37°C followed by impedance measurements of CHO cells and cAMP was assayed by the HTRF method using NG-10815 cells, according to CEREP standard assay protocols. The respective reference, non-peptide small molecules were tested concurrently with the TAPS analogs. The agonist compounds were: DPDPE (selective agonist of DOP receptor) and DAMGO (high MOP receptor specificity) and the antagonist compounds were: Naltrindole (selective DOP receptor antagonist) and CTOP (MOP receptor antagonist). […] The results are expressed as a percentage of respective control-specific response. […] These findings indicate that TAPS cyclic peptides are MOP selective full agonists. […] The cyclic TAPS peptide had lower activity than the linear parent TAPS peptide (90 ± 5%) – a finding that can be attributed to their restricted conformation relative to the flexible linear peptide conformation.
Evaluation of the Agonist Activity of Compounds at the Human μ Receptor in Transfected CHO Cells, Determined by Measuring Their Effects on cAMP modulation Using the HTRF Detection Method
Thereafter, the adenylyl cyclase activator NKH 477 is added at a final concentration of […]. Following 10 min incubation at 37°C, the cells are lysed and the fluorescence acceptor (D2-labeled cAMP) and fluorescence donor (anti-cAMP antibody labeled with europium cryptate) are added. After 60 min at room temperature, the fluorescence transfer is measured at lex = 337 nm and lem = 620 and 665 nm using a microplate reader (Rubystar, BMG). The cAMP concentration is determined by dividing the signal measured at 665 nm by that measured at 620 nm (ratio). The results are expressed as a percent of the control response to 1 μM DAMGO. The standard reference agonist is DAMGO, which is tested in each experiment at several concentrations to generate a concentration-response curve from which its EC50 value is calculated.
(§2) The respective reference, non-peptide small molecules were tested concurrently with the TAPS analogs; Agonist compounds DPDPE ([D-Pen2,D-Pen5]enkephalin), selective agonist of DOP receptor at 2 × 10^−9 M and DAMGO ([D-Ala2, N-MePhe4, Gly-ol] enkephalin), high MOP specificity at 2.5 × 10^−9 M; Antagonist compounds: naltrindole 7-(cyclopropylmethyl)-6,7-dehydro-4,5α-epoxy-3,14-dihydroxy-6,7-2′,3′-indolomorphinan hydrochloride, selective DOP antagonist, 5 × 10^−10 M and CTOP (D-Phe-Cys-Tyr-D-Trp-Orn-Thr-Pen-Thr-NH2), MOP antagonist at 3.4 × 10^−7 M. Depending on the assay volume and solvent tolerance, the stock solutions were diluted to [100×], [333×] or [1,000×] in 100% DMEM solvent, then either added directly or further diluted to [10×] or [5×] in H2O or Hank's balanced salt solution (HBSS) before addition to the assay well (final solvent concentration kept constant). The cultures were incubated for 10 min at 37°C followed by impedance measurements using cellular dielectric spectroscopy of CHO cells and cAMP was assayed by homogeneous time resolved fluorescence (HTRF) method using NG-10815 cells, according to CEREP standard assay protocols (https://euroscreenfast.com/assays/opioid-orl1-camp-fast-0360c; https://euroscreenfast.com/assays/opioid-op1-delta-camp-fast-0379c). The results (mean of three experiments) are expressed as a percent of control specific agonist response [(measured TAPS specific response/control specific agonist response) × 100] and as a percent inhibition of control specific agonist response [100 – (measured TAPS specific response/control specific agonist response) × 100] obtained in the presence of the TAPS compounds. […]

Data set [2] has as its target T2, δ (DOP, OPRD2) opioid receptor (Mus musculus, UniProt P32300).
T2 construct: NG-10815 cells which express significant endogenous levels of δ opioid receptors; host or cells: NG-10815 (NG108-15) mouse N18TG2 neuroblastoma x rat C6-BU-1 glioma hybrid cells
Put plainly: DOP opioid receptor functional antagonism in NG-10815 cells. It counts as cell-based, rat. The conditions noted are these: Between 10^−9-10^−6 M, percent inhibition of control specific agonist response. The method, then: as §1
(§3) The respective reference, non-peptide small molecules were tested concurrently with the TAPS analogs; Agonist compounds DPDPE ([D-Pen2,D-Pen5]enkephalin), selective agonist of DOP receptor at 2 × 10^−9 M and DAMGO ([D-Ala2, N-MePhe4, Gly-ol] enkephalin), high MOP specificity at 2.5 × 10^−9 M; Antagonist compounds: naltrindole 7-(cyclopropylmethyl)-6,7-dehydro-4,5α-epoxy-3,14-dihydroxy-6,7-2′,3′-indolomorphinan hydrochloride, selective DOP antagonist, 5 × 10^−10 M and CTOP (D-Phe-Cys-Tyr-D-Trp-Orn-Thr-Pen-Thr-NH2), MOP antagonist at 3.4 × 10^−7 M. Depending on the assay volume and solvent tolerance, the stock solutions were diluted to [100×], [333×] or [1,000×] in 100% DMEM solvent, then either added directly or further diluted to [10×] or [5×] in H2O or Hank's balanced salt solution (HBSS) before addition to the assay well (final solvent concentration kept constant). The cultures were incubated for 10 min at 37°C followed by impedance measurements using cellular dielectric spectroscopy of CHO cells and cAMP was assayed by homogeneous time resolved fluorescence (HTRF) method using NG-10815 cells, according to CEREP standard assay protocols (https://euroscreenfast.com/assays/opioid-orl1-camp-fast-0360c; https://euroscreenfast.com/assays/opioid-op1-delta-camp-fast-0379c). The results (mean of three experiments) are expressed as a percent of control specific agonist response [(measured TAPS specific response/control specific agonist response) × 100] and as a percent inhibition of control specific agonist response [100 – (measured TAPS specific response/control specific agonist response) × 100] obtained in the presence of the TAPS compounds. Results showing a stimulation or an inhibition lower than 25% were considered not significant and mostly attributable to variability of the signal around the control level. Results showing a stimulation or an inhibition higher than 50% were considered to represent significant effects of the TAPS compounds.

Data set [3] deals with T1, human recombinant μ (MOP, OPRM1) receptor. Put plainly: MOP opioid receptor functional antagonism in CHO cells expressing human recombinant μ receptors. The settings on record: Between 10^−9-10^−6 M, percent inhibition of control specific agonist response, values lower than 25% not significant. It counts as cell-based. The method, then:
as §1, §3

Data set [4] deals with T2, δ (DOP, OPRD2) opioid receptor. Put plainly: DOP opioid receptor functional agonism in NG-10815 cells. Type of data set: cell-based, rat. The settings on record: At 10^−6 M, percent of control specific agonist response. The method, then: as §1
Evaluation of the Agonist Activity of Compounds at the Rat delta2 Receptor Endogenously Expressed in NG-10815 Cells, Determined by Measuring Their Effects on Impedance Modulation Using the CellKey (CDS) Detection Method
Cells are seeded onto 96-well plate coated with fibronectin at 2 × 10^5 cells/well in HBSS buffer (Invitrogen) + 20 mM HEPES (Invitrogen) with 0.1% BSA and allowed to equilibrate for 60 min at 37°C before the start of the experiment. Plates are placed onto the system and measurements are made at a temperature of 37°C. […] Impedance measurements are monitored for 10 min after ligand addition. The standard reference agonist is DPDPE, which is tested in each experiment at several concentrations to generate a concentration-response curve from which its EC50 value is calculated.
as §2, with “https://euroscreenfast.com/assays/opioid-op1-delta-camp-fast-0379c).” for “https://euroscreenfast.com/assays/opioid-op1-delta-camp-fast-0379c). The results (mean of three experiments) are expressed as a percent of control specific agonist response [(measured TAPS specific response/control specific agonist response) × 100] and as a percent inhibition of control specific agonist response [100 – (measured TAPS specific response/control specific agonist response) × 100] obtained in the presence of the TAPS compounds.”

The subject of a further data set is mice. Put plainly: Mouse open field test (locomotor adverse effect). The conditions noted are these: 5 mg/kg IP.
Data set [5] is described as follows: Caco-2 permeability assay. The settings on record: human. (Caco-2 monolayers are a common model of the intestinal barrier.)

T1 sequence (P35372 whole entry): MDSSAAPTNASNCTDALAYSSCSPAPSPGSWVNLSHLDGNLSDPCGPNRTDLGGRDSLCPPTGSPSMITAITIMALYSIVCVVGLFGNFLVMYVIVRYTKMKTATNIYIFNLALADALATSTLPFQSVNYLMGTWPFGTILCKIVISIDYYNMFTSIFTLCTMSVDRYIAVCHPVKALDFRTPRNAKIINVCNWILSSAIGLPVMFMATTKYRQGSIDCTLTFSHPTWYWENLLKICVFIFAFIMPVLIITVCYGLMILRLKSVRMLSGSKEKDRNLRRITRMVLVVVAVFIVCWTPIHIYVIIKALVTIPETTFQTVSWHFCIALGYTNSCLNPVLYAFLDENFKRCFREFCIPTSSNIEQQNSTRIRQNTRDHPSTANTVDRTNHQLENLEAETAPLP
T2 sequence (P32300 whole entry): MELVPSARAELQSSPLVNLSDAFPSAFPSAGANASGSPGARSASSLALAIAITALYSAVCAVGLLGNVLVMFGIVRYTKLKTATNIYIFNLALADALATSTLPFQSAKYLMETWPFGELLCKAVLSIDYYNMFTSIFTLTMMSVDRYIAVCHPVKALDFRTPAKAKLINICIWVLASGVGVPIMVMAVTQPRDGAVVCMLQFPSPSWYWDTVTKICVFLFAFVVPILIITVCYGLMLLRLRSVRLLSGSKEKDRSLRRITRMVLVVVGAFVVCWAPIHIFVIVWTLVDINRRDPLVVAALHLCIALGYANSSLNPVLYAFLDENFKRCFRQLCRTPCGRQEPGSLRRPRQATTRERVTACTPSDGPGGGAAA
Method for mice: In the mouse open field test (OF test), the distance and speed the animal moves over a 5-min time period is recorded, giving an indication as to whether a medication administered affected its locomotor activity. TAPS c(2-6) (5 or 15 mg/kg) was administered via IP administration and compared to morphine (5 mg/kg) and vehicle (PBS).
Male ICR mice (Harlan, Israel) 7 weeks of age (25–27) were used for all pharmacodynamic experiments after 5-day acclimation to laboratory conditions. Animals were allowed free access to food (standard commercial, sterile rodent diet) and water throughout the experiments and kept in automatically controlled environmental conditions for temperature and humidity levels in a 12-h dark-light cycle.
Animals were placed in the OF apparatus for a period of 5 min. The apparatus utilizes computerized monitoring which measures the speed and distance the animal walks during the measurement period. […] Baseline measurements were taken 1 day before initiation of the experiments and again at 0.5, 1.5, 3, and 5 h post injection.

On to “TAPS c(4-6): backbone-cyclic TAPS analog, urea bridge; ring size 20 (YRF[Nlys]-NH2; bridge 2-4 via CO; not fully specified (residue 2); also: urea bridge between the two N-alkyl chains)”, for which, in data set [1], the “MOP agonist (%)” value was found to be 1%. Further, the “DOP antagonist (%)” value in data set [2] is 3%. Also, in data set [3], the “MOP antagonist (%)” value came out at 1%.

For the compound “TAPS c(6-3): backbone-cyclic TAPS analog, urea bridge; ring size 19 (YRF[N(6-aminohexyl)Gly]-NH2; bridge 2-4 via CO; not fully specified (residue 2); also: urea bridge between the two N-alkyl chains)”, the “MOP agonist (%)” value in data set [1] is 75 ± 9% and 75^** %. For the same compound, in data set [2], the “DOP antagonist (%)” value stood at 8%. In addition, the “DOP agonist (%)” value in data set [4] is 19%.

Consider `CN1CC[C@]23c4c5ccc(O)c4O[C@H]2[C@@H](O)C=C[C@H]3[C@H]1C5` [morphine, reference compound], for which, in the data set on mice, the “locomotor effect (distance and speed of movement over 5 min)” value was “excitatory effect”.

The Papp is the rate of passage across a membrane or cell layer, normalised by area and donor concentration. On to `COCCc1ccc(OCC(O)CNC(C)C)cc1` (stereo not shown) [metoprolol, reference compound], for which the apparent permeability coefficient (Papp) at 150 min in data set [5] is 13 ×10⁻⁶ cm/s.

Turning to “TAPS c(3-3): backbone-cyclic TAPS analog, urea bridge; ring size 16 (YRF[NGly(3-aminopropyl)]-NH2; bridge 2-4 via CO; not fully specified (residue 2); also: urea bridge between the two N-alkyl chains)”, the “MOP agonist (%)” value in data set [1] turned out to be 1%. In data set [2], the “DOP antagonist (%)” value came to 11%. Moreover, in data set [3], the “MOP antagonist (%)” value stood at 2%. The “DOP agonist (%)” value in data set [4] was 14%.

Consider “TAPS c(3-6): backbone-cyclic TAPS analog, urea bridge; ring size 19 (YRF[NGly(3-aminopropyl)]-NH2; bridge 2-4 via CO; not fully specified (residue 2); also: urea bridge between the two N-alkyl chains)”, for which, in data set [1], the “MOP agonist (%)” value is 1%. The “DOP antagonist (%)” value in data set [2] is reported as 1%. For the same compound, in data set [3], the “MOP antagonist (%)” value turned out to be 2%.

With “TAPS c(6-6): backbone-cyclic TAPS analog, urea bridge; ring size 22 (YRF[N(6-aminohexyl)Gly]-NH2; bridge 2-4 via CO; not fully specified (residue 2); also: urea bridge between the two N-alkyl chains)”, in data set [1], the “MOP agonist (%)” value amounted to 21%. In addition, the “DOP antagonist (%)” value in data set [2] was determined as 6%. In addition, the “MOP antagonist (%)” value in data set [3] was determined as 3%. For the same compound, the “DOP agonist (%)” value in data set [4] amounted to 1%.

Consider “TAPS c(4-3): backbone-cyclic TAPS analog, urea bridge; ring size 17 (YRF[Nlys]-NH2; bridge 2-4 via CO; not fully specified (residue 2); also: urea bridge between the two N-alkyl chains)”, for which the “MOP agonist (%)” value in data set [1] was 63 ± 5% and 63^** %. Further, the “DOP antagonist (%)” value in data set [2] is reported as 0%. In data set [4], the “DOP agonist (%)” value was found to be 11%.

For “TAPS c(2-3): backbone-cyclic TAPS analog, urea bridge; n-m alkyl chain lengths on nitrogens of Gly and Arg; ring size 15 (YRF[N(2-Aminoethyl)Gly]-NH2; bridge 2-4 via CO; not fully specified (residue 2); also: urea bridge between the two N-alkyl chains)”, the “MOP agonist (%)” value in data set [1] turned out to be 24%. Moreover, the “DOP antagonist (%)” value in data set [2] came to 2%. In addition, the “MOP antagonist (%)” value in data set [3] was 1%.
